Target: the molecule itself
Experiment: SEC-MALS; Silica Gel KW804 column (Shodex), 10 mM Tris, 150 mM NaCl, pH 7.5, 0.5 ml/min; MALS/UV/RI with quasi-elastic light scattering; protein loaded at 0.02 mM

B1: recombinant pro-Monalysin (natural protein)
chain: MTIKEELGQPQSHSIELDEVSKEAASTRAALTSNLSGRFDQYPTKKGDFAIDGYLLDYSSPKQGCWVDGITVYGDIYIGKQNWGTYTRPVFAYLQYVETISIPQNVTTTLSYQLTKGHTRSFETSVNAKYSVGANIDIVNVGSEISTGFTRSESWSTTQSFTDTTEMKGPGTFVIYQVVLVYAHNATSAGRQNANAFAYSKTQAVGSRVDLYYLSAITQRKRVIVPSSNAVTPLDWDTVQRNVLMENYNPGSNSGHFSFDWSAYNDPHRRY
notes: Monalysin (pro-form, pore-forming toxin) of Pseudomonas entomophila L48, ORF PSEEN3174, residues 1 to 271; 30.2 kDa by MALDI-TOF, called the full-length pro-toxin; TRX-His6-TEV fusion from the vector pETG-20A, removed by His-TEV protease; The text mostly calls this protein 'Monalysin' or 'recombinant Monalysin'; upon storage at 4°C it turns partly into the shorter form; Oligomer of about 18 …
stoichiometry N: ~18 monomers

Source: publication PMC3182943, “Monalysin, a Novel ß-Pore-Forming Toxin from the Drosophila Pathogen Pseudomonas entomophila, Contributes to Host Intestinal Damage and Lethality” (PLoS Pathogens, 2011)
